Data as given in paper PMC5901963 (Nature, 2017).

Assays:
[1] = biological target: bacTMEM175 from Chryseobacterium sp (Chryseobacterium sp); test: cross-linking
[2] = biological target: bacTMEM175 from Streptomyces collinus (Streptomyces collinus); test: cross-linking
crystal structure = biological target: the molecule itself; test: crystal structure

bacTMEM175 from Chryseobacterium sp (natural protein)
stoichiometry N [1]: 4

bacTMEM175 from Streptomyces collinus (natural protein)
stoichiometry N [2]: 4

B1: TMEM175 from Chamaesiphon minutus (CmTMEM175) (natural protein, UniProt K9UJK2 1-203, looked up)
chain: MVEAPEQSETGRIEAFSDGVFAIAITLLVLEIKVPQHKIVETVGLVSSLLSLWPSYLAFLTSFASILVMWVNHHRIFSLVARTDHAFFYWNGLLLMLVTFVPFPTALLAEYLIHPQARVAASVYAGIFLAIAIVFNRLWKHAATADRLLAQKADRHEVDAITKQYRFGPGLYLVAFALSFISVWLSVGVCFVLAIYFALRSNA
stoichiometry N (crystal structure): 4
